Test results: patent US6893829B2, “Human leukocyte 12-lipoxygenase and its role in the pathogenesis of disease states” (City of Hope, priority 1992, dated 2005)

Tests used:
[1] = test system: VEGF protein in MCF-7 cells; assay: VEGF protein expression in breast cancer cells (immunoblot); format: cell-based, human; settings: MCF-7, 24 hours
Protocol: FIG. 8 illustrates the dose-dependent effect of platelet-derived growth factor (PDGF) on vascular endothelial growth factor (VEGF) protein (42 kD) expression in MCF-7 breast cancer cells. Nearly confluent MCF-7 cells were serum starved for 24 hours by placing in DME medium+0.4% FCS and 0.2% BSA. This medium was then freshly replaced and the cells incubated for another 24 hours with PDGF. At the end of the incubation, the cell monolayers were washed with ice-cold PBS, scraped into PBS and pelleted by centrifugation. The cell pellets were then lysed and equal amounts of protein (50 μg) subjected to electrophoresis and immunoblotting to detect VEGF using a specific antibody from Santa Cruz Biotechnology. Detection was by a chemiluminiscent technique.
FIG. 9 illustrates the effect of epidermal growth factor (EGF) and the 12-lipoxygenase product 12-HETE on VEGF protein expression in the MCF-7 breast cancer cell line MCF-7. MCF-7 cells were treated with EGF and 12-HETE for 24 hours and VEGF protein identified as described in the legend to FIG. 8.

[2] = test system: 12-LO activity in MCF-7 cells; assay: 12-HETE formation in MCF-7 cells; settings: four hours, basal 257±10 pg/10^6 cells
[3] = test system: leukocyte-type 12-LO in MCF-7 cells; assay: 12-LO protein and mRNA expression in MCF-7 cells; settings: EGF 50 ng/ml, 24 hours

B1: EGF: Epidermal Growth Factor (protein, UniProt P01133 23-1207, looked up)
Pro-epidermal growth factor: PQHWSCPEGTLAGNGNSTCVGPAPFLIFSHGNSIFRIDTEGTNYEQLVVDAGVSVIMDFHYNEKRIYWVDLERQLLQRVFLNGSRQERVCNIEKNVSGMAINWINEEVIWSNQQEGIITVTDMKGNNSHILLSALKYPANVAVDPVERFIFWSSEVAGSLYRADLDGVGVKALLETSEKITAVSLDVLDKRLFWIQYNREGSNSLICSCDYDGGSVHISKHPTQHNLFAMSLFGDRIFYSTWKMKTIWIANKHTGKDMVRINLHSSFVPLGELKVVHPLAQPKAEDDTWEPEQKLCKLRKGNCSSTVCGQDLQSHLCMCAEGYALSRDRKYCEDVNECAFWNHGCTLGCKNTPGSYYCTCPVGFVLLPDGKRCHQLVSCPRNVSECSHDCVLTSEGPLCFCPEGSVLERDGKTCSGCSSPDNGGCSQLCVPLSPVSWECDCFPGYDLQLDEKSCAASGPQPFLLFANSQDIRHMHFDGTDYGTLLSQQMGMVYALDHDPVENKIYFAHTALKWIERANMDGSQRERLIEEGVDVPEGLAVDWIGRRFYWTDRGKSLIGRSDLNGKRSKIITKENISQPRGIAVHPMAKRLFWTDTGINPRIESSSLQGLGRLVIASSDLIWPSGITIDFLTDKLYWCDAKQSVIEMANLDGSKRRRLTQNDVGHPFAVAVFEDYVWFSDWAMPSVMRVNKRTGKDRVRLQGSMLKPSSLVVVHPLAKPGADPCLYQNGGCEHICKKRLGTAWCSCREGFMKASDGKTCLALDGHQLLAGGEVDLKNQVTPLDILSKTRVSEDNITESQHMLVAEIMVSDQDDCAPVGCSMYARCISEGEDATCQCLKGFAGDGKLCSDIDECEMGVPVCPPASSKCINTEGGYVCRCSEGYQGDGIHCLDIDECQLGEHSCGENASCTNTEGGYTCMCAGRLSEPGLICPDSTPPPHLREDDHHYSVRNSDSECPLSHDGYCLHDGVCMYIEALDKYACNCVVGYIGERCQYRDLKWWELRHAGHGQQQKVIVVAVCVVVLVMLLLLSLWGAHYYRTQKLLSKNPKNPYEESSRDVRSRRPADTEDGMSSCPQPWFVVIKEHQDLKNGGQPVAGEDGQAADGSMQPTSWRQEPQLCGMGTEQGCWIPVSSDKGSCPQVMERSFHMPSYGTQTLEGGVEKPHSLLSANPLWQQRALDPPHQMELTQ
modifications: Pro-epidermal growth factor
VEGF protein expression [1]: induced | formation of 12-HETE ([2]; serum-starved MCF-7, EGF 50 ng/ml): 462 ± 15 pg | formation of 12-HETE ([2]; serum-starved MCF-7, EGF 100 ng/ml): 593 ± 46 pg | levels of 12-LO protein (72 kD) and 12-LO mRNA [3]: marked increase
